Data as given in patent US20220332804A1 (CSL INNOVATION, published 2022).

What was measured:
Test in all cases: SPR, KD relative to WT C2;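 note: biacore SPR at 37 °C, anti-C2 mAbs captured via immobilised goat anti-human IgG, C2 alanine or serine surface mutants as analytes, 1:1 model fitted, double-referenced sensograms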
human C2 K329A = target: T1, human C2 K329A (human, UniProt P06681 21-752)
T1 sequence: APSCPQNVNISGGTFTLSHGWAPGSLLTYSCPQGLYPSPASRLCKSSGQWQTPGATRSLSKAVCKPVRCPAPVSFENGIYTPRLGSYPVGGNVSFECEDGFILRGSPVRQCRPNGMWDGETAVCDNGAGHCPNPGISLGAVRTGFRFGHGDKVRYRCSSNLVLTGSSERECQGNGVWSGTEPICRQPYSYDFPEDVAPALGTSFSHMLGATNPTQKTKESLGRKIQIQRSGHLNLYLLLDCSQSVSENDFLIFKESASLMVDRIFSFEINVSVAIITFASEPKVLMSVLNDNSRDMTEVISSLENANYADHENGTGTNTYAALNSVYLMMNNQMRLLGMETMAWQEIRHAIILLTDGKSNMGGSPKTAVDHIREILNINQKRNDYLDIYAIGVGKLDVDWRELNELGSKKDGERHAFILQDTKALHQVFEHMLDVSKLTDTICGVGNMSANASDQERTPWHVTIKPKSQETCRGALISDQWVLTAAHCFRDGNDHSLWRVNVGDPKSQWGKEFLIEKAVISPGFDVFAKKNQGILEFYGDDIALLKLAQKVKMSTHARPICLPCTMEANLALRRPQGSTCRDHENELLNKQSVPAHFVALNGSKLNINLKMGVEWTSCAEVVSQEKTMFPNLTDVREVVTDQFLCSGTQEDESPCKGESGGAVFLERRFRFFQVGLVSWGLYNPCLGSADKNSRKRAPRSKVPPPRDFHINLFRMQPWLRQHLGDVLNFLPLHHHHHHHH

human C2 D282A = target: T2, human C2 D282A (human, UniProt P06681 21-752)
T2 sequence: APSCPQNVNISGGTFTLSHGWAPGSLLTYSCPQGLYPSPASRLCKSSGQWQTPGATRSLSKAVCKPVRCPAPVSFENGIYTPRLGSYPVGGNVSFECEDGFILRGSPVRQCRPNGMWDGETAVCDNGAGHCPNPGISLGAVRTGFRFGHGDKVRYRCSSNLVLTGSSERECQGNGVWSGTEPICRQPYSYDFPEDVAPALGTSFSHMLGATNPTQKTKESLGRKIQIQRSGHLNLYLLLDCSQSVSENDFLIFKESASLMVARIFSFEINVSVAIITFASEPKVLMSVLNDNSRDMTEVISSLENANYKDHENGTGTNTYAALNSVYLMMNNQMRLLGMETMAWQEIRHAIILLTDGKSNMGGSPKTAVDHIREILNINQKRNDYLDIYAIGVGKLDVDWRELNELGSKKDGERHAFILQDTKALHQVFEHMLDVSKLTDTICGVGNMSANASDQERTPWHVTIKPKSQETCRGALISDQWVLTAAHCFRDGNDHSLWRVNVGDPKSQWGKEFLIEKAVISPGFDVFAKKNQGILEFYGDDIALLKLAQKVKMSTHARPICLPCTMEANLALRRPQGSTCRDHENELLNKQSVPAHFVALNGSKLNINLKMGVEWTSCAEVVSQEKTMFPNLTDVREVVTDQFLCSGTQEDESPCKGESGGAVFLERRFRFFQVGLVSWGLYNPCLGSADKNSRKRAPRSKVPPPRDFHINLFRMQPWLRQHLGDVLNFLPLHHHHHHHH

human C2 K485A = target: T3, human C2 K485A (human, UniProt P06681 21-752)
T3 sequence: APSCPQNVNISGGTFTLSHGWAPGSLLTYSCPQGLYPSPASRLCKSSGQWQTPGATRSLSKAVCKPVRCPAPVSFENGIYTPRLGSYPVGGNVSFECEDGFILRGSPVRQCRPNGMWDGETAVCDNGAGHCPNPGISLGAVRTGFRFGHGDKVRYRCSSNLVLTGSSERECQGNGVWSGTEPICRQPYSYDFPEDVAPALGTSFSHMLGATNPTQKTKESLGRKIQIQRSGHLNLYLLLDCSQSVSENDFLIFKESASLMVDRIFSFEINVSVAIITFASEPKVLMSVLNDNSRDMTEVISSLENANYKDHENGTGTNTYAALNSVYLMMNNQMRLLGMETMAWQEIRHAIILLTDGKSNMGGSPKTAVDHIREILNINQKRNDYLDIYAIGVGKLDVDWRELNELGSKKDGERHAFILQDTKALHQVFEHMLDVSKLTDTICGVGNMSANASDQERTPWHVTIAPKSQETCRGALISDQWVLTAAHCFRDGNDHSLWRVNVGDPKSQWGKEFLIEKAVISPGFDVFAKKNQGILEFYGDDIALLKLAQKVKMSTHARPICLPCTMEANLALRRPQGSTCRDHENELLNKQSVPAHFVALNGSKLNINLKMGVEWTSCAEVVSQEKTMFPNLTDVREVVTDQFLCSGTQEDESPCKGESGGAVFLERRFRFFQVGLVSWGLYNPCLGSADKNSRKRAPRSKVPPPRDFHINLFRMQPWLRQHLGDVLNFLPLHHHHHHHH

human C2 S473A = target: T4, human C2 S473A (human, UniProt P06681 21-752)
T4 sequence: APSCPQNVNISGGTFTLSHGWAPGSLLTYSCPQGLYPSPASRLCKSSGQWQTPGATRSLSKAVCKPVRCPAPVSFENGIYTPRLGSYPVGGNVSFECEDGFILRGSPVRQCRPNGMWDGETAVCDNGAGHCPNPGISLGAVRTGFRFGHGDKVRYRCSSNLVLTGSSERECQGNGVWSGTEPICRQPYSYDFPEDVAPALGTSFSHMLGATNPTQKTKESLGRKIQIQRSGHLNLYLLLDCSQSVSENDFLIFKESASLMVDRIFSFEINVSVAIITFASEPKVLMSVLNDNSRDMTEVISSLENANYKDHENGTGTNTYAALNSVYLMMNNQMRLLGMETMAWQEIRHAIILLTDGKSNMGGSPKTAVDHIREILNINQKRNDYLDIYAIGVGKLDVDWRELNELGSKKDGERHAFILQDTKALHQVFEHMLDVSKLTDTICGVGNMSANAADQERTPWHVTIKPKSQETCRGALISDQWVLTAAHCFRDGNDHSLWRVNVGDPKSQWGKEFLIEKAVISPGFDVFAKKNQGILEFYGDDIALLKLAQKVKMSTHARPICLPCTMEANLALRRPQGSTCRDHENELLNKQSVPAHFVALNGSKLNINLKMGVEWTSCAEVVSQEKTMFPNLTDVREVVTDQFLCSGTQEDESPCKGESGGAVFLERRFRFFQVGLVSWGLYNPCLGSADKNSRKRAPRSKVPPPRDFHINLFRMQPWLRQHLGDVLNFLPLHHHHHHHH

B1: RF16-226 (antibody, human IgG4 S228P, lambda)
heavy: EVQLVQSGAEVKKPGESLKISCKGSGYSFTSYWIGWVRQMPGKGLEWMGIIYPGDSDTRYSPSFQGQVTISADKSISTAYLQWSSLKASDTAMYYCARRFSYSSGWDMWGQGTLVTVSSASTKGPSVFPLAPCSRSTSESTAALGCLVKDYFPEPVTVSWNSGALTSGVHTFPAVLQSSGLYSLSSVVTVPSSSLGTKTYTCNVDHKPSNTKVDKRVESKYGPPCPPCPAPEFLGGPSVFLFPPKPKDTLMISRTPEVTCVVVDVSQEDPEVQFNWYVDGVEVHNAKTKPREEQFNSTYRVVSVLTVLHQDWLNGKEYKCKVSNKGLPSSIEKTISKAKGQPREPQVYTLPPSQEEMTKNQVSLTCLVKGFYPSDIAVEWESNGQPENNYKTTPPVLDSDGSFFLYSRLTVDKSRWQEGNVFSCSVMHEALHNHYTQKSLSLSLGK
light: SYELTQPPSVSVSPGQTARITCSGDALTSKYVAWYQQKSGLAPLLVIYEDTRRPSGIPAKFSGSSSGSVATLTISGAHGDDEADYYCYSTDASGHQRVFGGGTKLTVLSQPKAAPSVTLFPPSSEELQANKATLVCLISDFYPGAVTVAWKADGSPVKAGVETTKPSKQSNNKYAASSYLSLTPEQWKSHRSYSCQVTHEGSTVEKTVAPTECS
notes: pH-dependent anti-C2 antibody from a phage display library; also called WT
Q: How did the Fold diff (human C2 K329A) turn out when B1 was run?
A: 3 fold

Q: What about the Fold diff (human C2 D282A) of the same binder?
A: 1 fold

Q: And the Fold diff (human C2 K485A)?
A: 1 fold

Q: What about the Fold diff (human C2 S473A) of the same binder?
A: 1 fold
